Measured values reported in US20090192048A1, “METHOD OF PRODUCING A […] AGENT FOR BINDING A LIGAND” (priority 2005, published 2009).
Ends that are not written are not given here.

Assay: Retention of peptides 2DOS-1 to 2DOS-16 on a hydrophobic surface (polypropylene microtitre plate wells), water wash
Assay type: physicochemical
Settings: 400V scan; 100 μl of 10 μM peptide before drying and washing
Protocol: The retention of peptides 2DOS-1 to 2DOS-16 on a hydrophobic surface (the wells of a polypropylene microtitre plate) was then investigated.
(§1) 10 mM tris-HCl (pH 8.0) in 50% (v/v) aqueous acetonitrile was used as the solvent for the peptides and for TAMRA.
100 μl aliquots of 10 μM peptides 2DOS-1 to 2DOS-16 and 10 μM TAMRA were placed in the wells of a Costar microtitre plate as shown in FIG. 13:
(§2) The microtitre plate was imaged at 200 μm resolution on a Typhoon Trio Plus variable mode imager (Amersham Biosciences) with the green (532 nm) laser and the 580 BP 30 filter at the PMT voltages indicated below and at normal sensitivity. The scan height was set at +3 mm and the sample was pressed during scanning.
The peptides were allowed to evaporate to dryness overnight in the dark and the microtitre plate was again scanned as described above.
The wells were then washed ten times with 250 μl of water.
The residual surface-bound peptides were finally resuspended in 100 μl of 10 mM tris-HCl (pH 8.0) in 50% (v/v) aqueous acetonitrile and the microtitre plate was again scanned as described above.
(§3) The fluorescence images were analysed using ImageQuant TL v2003.03 (Amersham Biosciences).
Quantification data (using the data from the 400V scan) is given in Table 2 and shown graphically in FIG. 15.

Row | Substance | Initial fluorescence (×10^3)
1 | N-TAMPA-Asp-Asp- Asp-Asp-Asp-Asp- Asp-C ({TAMRA}-DDDDDDD) [Peptide 2DOS-16] | 30,335 ×10^3
2 | N-TAMPA-Asp-Asp- Asp-Asp-Asp-Asp- Asp-Asp-Asp-C ({TAMRA}-DDDDDDDDD) [Peptide 2DOS-12] | 26,433 ×10^3
3 | N-TAMRA-Asp-Phe- Ala-Phe-Ser-Phe- Lys-C ({TAMRA}-DFAFSFK) [Peptide 2DOS-6] | 33,853 ×10^3

Same assay, conditions: 400V scan; dried, washed ten times with 250 μl water, resuspended

Row | Substance | Recovered fluorescence (×10^3)
4 | N-TAMPA-Asp-Asp- Asp-Asp-Asp-Asp- Asp-C ({TAMRA}-DDDDDDD) [Peptide 2DOS-16] | 3 ×10^3
5 | N-TAMPA-Asp-Asp- Asp-Asp-Asp-Asp- Asp-Asp-Asp-C ({TAMRA}-DDDDDDDDD) [Peptide 2DOS-12] | 1 ×10^3
6 | N-TAMRA-Asp-Phe- Ala-Phe-Ser-Phe- Lys-C ({TAMRA}-DFAFSFK) [Peptide 2DOS-6] | 1,455 ×10^3

Assay: Retention of peptides on Greiner polystyrene V-bottom wells
Assay type: physicochemical
Settings: 400V scan
Protocol: (§4) The retention of peptides 2DOS-1 to 2DOS-16 (see above) on polypropylene and polystyrene surfaces was compared:
(§5) 5 mM tris-HCl (pH 8.0) in 75% (v/v) aqueous acetonitrile was used as the solvent for the peptides and for TAMRA.
(§6) 20 μl aliquots of 5 μM peptides 2DOS-1 to 2DOS-16 and 5 μM TAMRA were pipetted into the wells of a Costar V-bottomed polypropylene microtitre plate, a Greiner V-bottomed polypropylene microtitre plate, and a Greiner V-bottomed polystyrene microtitre plate according to the scheme shown in FIG. 26:
(§7) The peptide samples were allowed to evaporate to dryness in the dark.
(§8) The peptide samples in the top two rows of the microtitre plates were then incubated for 15 minutes at room temperature in 250 μl of 1 M NaCl in 10 mM tris-HCl (pH 8.0).
(§9) After incubation, the wash buffer was pipetted up and down eight times in the well before removing the supernatant.
(§10) The washed and untreated peptide samples were then resuspended in 50 μl of 10 mM tris-HCl (pH 8.0) in 50% (v/v) aqueous acetonitrile.
as §2, with “plates were” for “plate was”
as §3

Row | Substance | Percent retention
7 | N-TAMPA-Asp-Asp- Asp-Asp-Asp-Asp- Asp-C ({TAMRA}-DDDDDDD) [Peptide 2DOS-16] | 0%
8 | N-TAMPA-Asp-Asp- Asp-Asp-Asp-Asp- Asp-Asp-Asp-C ({TAMRA}-DDDDDDDDD) [Peptide 2DOS-12] | 1%
9 | N-TAMRA-Asp-Phe- Ala-Phe-Ser-Phe- Lys-C ({TAMRA}-DFAFSFK) [Peptide 2DOS-6] | 25%

Same assay, conditions: 400V scan, unwashed

Row | Substance | Untreated fluorescence
10 | N-TAMPA-Asp-Asp- Asp-Asp-Asp-Asp- Asp-C ({TAMRA}-DDDDDDD) [Peptide 2DOS-16] | 789,858
11 | N-TAMPA-Asp-Asp- Asp-Asp-Asp-Asp- Asp-Asp-Asp-C ({TAMRA}-DDDDDDDDD) [Peptide 2DOS-12] | 684,832
12 | N-TAMRA-Asp-Phe- Ala-Phe-Ser-Phe- Lys-C ({TAMRA}-DFAFSFK) [Peptide 2DOS-6] | 666,352

Same assay, conditions: 400V scan, washed 15 minutes in 1 M NaCl in 10 mM tris-HCl (pH 8.0)

Row | Substance | Retained fluorescence
13 | N-TAMPA-Asp-Asp- Asp-Asp-Asp-Asp- Asp-C ({TAMRA}-DDDDDDD) [Peptide 2DOS-16] | 3,864
14 | N-TAMPA-Asp-Asp- Asp-Asp-Asp-Asp- Asp-Asp-Asp-C ({TAMRA}-DDDDDDDDD) [Peptide 2DOS-12] | 3,788
15 | N-TAMRA-Asp-Phe- Ala-Phe-Ser-Phe- Lys-C ({TAMRA}-DFAFSFK) [Peptide 2DOS-6] | 167,118

Assay: Retention of peptides in V-bottomed polypropylene wells
Assay type: physicochemical
Settings: V-bottom wells; 500V scan
Protocol: (§11) The retention of peptides 2DOS-1 to 2DOS-16 (see above) on polypropylene wells of different geometries was investigated:
as §1
(§12) 1 μl aliquots of 10 μM peptides 2DOS-1 to 2DOS-16 and 10 μM TAMRA were pipetted into the wells of a Costar V-bottomed polypropylene microtitre plate and a Greiner flat-bottomed polypropylene microtitre plate according to the following scheme as shown in FIG. 22:
as §7
(§13) The peptide samples in the top two rows of the microtitre plates were then incubated for 15′ minutes at room temperature in 250 μl of 1 M NaCl in 10 mM tris-HCl (pH 8.0).
as §9, §10
as §2, with “plates were” for “plate was”, “the platen” for “+3 mm”, “during,” for “during”
as §3

Row | Substance | Percent retention
16 | N-TAMPA-Asp-Asp- Asp-Asp-Asp-Asp- Asp-C ({TAMRA}-DDDDDDD) [Peptide 2DOS-16] | 0%
17 | N-TAMPA-Asp-Asp- Asp-Asp-Asp-Asp- Asp-Asp-Asp-C ({TAMRA}-DDDDDDDDD) [Peptide 2DOS-12] | 1%
18 | N-TAMRA-Asp-Phe- Ala-Phe-Ser-Phe- Lys-C ({TAMRA}-DFAFSFK) [Peptide 2DOS-6] | 39%

Same assay, conditions: V-bottom wells; 500V scan; unwashed

Row | Substance | Untreated fluorescence
19 | N-TAMPA-Asp-Asp- Asp-Asp-Asp-Asp- Asp-C ({TAMRA}-DDDDDDD) [Peptide 2DOS-16] | 9,782,527
20 | N-TAMPA-Asp-Asp- Asp-Asp-Asp-Asp- Asp-Asp-Asp-C ({TAMRA}-DDDDDDDDD) [Peptide 2DOS-12] | 6,777,661
21 | N-TAMRA-Asp-Phe- Ala-Phe-Ser-Phe- Lys-C ({TAMRA}-DFAFSFK) [Peptide 2DOS-6] | 9,141,290

Same assay, conditions: V-bottom wells; 500V scan; washed 15 minutes in 1 M NaCl in 10 mM tris-HCl (pH 8.0)

Row | Substance | Retained fluorescence
22 | N-TAMPA-Asp-Asp- Asp-Asp-Asp-Asp- Asp-C ({TAMRA}-DDDDDDD) [Peptide 2DOS-16] | 44,420
23 | N-TAMPA-Asp-Asp- Asp-Asp-Asp-Asp- Asp-Asp-Asp-C ({TAMRA}-DDDDDDDDD) [Peptide 2DOS-12] | 52,365
24 | N-TAMRA-Asp-Phe- Ala-Phe-Ser-Phe- Lys-C ({TAMRA}-DFAFSFK) [Peptide 2DOS-6] | 3,527,116

Assay: Retention of peptides on Costar polypropylene V-bottom wells
Assay type: physicochemical
Settings: 400V scan
Protocol: as §4, §5, §6, §7, §8, §9, §10
as §2, with “plates were” for “plate was”
as §3

Row | Substance | Percent retention
25 | N-TAMPA-Asp-Asp- Asp-Asp-Asp-Asp- Asp-C ({TAMRA}-DDDDDDD) [Peptide 2DOS-16] | 0%
26 | N-TAMPA-Asp-Asp- Asp-Asp-Asp-Asp- Asp-Asp-Asp-C ({TAMRA}-DDDDDDDDD) [Peptide 2DOS-12] | 0%
27 | N-TAMRA-Asp-Phe- Ala-Phe-Ser-Phe- Lys-C ({TAMRA}-DFAFSFK) [Peptide 2DOS-6] | 22%

Same assay, conditions: 400V scan, unwashed

Row | Substance | Untreated fluorescence
28 | N-TAMPA-Asp-Asp- Asp-Asp-Asp-Asp- Asp-C ({TAMRA}-DDDDDDD) [Peptide 2DOS-16] | 5,387,850
29 | N-TAMPA-Asp-Asp- Asp-Asp-Asp-Asp- Asp-Asp-Asp-C ({TAMRA}-DDDDDDDDD) [Peptide 2DOS-12] | 4,432,090
30 | N-TAMRA-Asp-Phe- Ala-Phe-Ser-Phe- Lys-C ({TAMRA}-DFAFSFK) [Peptide 2DOS-6] | 5,733,046

Same assay, conditions: 400V scan, washed 15 minutes in 1 M NaCl in 10 mM tris-HCl (pH 8.0)

Row | Substance | Retained fluorescence
31 | N-TAMPA-Asp-Asp- Asp-Asp-Asp-Asp- Asp-C ({TAMRA}-DDDDDDD) [Peptide 2DOS-16] | 16,194
32 | N-TAMPA-Asp-Asp- Asp-Asp-Asp-Asp- Asp-Asp-Asp-C ({TAMRA}-DDDDDDDDD) [Peptide 2DOS-12] | 18,180
33 | N-TAMRA-Asp-Phe- Ala-Phe-Ser-Phe- Lys-C ({TAMRA}-DFAFSFK) [Peptide 2DOS-6] | 1,256,204

Assay: Retention of peptides in flat-bottomed polypropylene wells
Assay type: physicochemical
Settings: flat-bottom wells; 500V scan
Protocol: as §11, §1, §12, §7, §13, §9, §10
as §2, with “plates were” for “plate was”, “the platen” for “+3 mm”, “during,” for “during”
as §3

Row | Substance | Percent retention
34 | N-TAMPA-Asp-Asp- Asp-Asp-Asp-Asp- Asp-C ({TAMRA}-DDDDDDD) [Peptide 2DOS-16] | 1%
35 | N-TAMPA-Asp-Asp- Asp-Asp-Asp-Asp- Asp-Asp-Asp-C ({TAMRA}-DDDDDDDDD) [Peptide 2DOS-12] | 1%
36 | N-TAMRA-Asp-Phe- Ala-Phe-Ser-Phe- Lys-C ({TAMRA}-DFAFSFK) [Peptide 2DOS-6] | 36%

Same assay, conditions: flat-bottom wells; 500V scan; unwashed

Row | Substance | Untreated fluorescence
37 | N-TAMPA-Asp-Asp- Asp-Asp-Asp-Asp- Asp-C ({TAMRA}-DDDDDDD) [Peptide 2DOS-16] | 15,555,465
38 | N-TAMPA-Asp-Asp- Asp-Asp-Asp-Asp- Asp-Asp-Asp-C ({TAMRA}-DDDDDDDDD) [Peptide 2DOS-12] | 12,982,170
39 | N-TAMRA-Asp-Phe- Ala-Phe-Ser-Phe- Lys-C ({TAMRA}-DFAFSFK) [Peptide 2DOS-6] | 14,539,109

Same assay, conditions: flat-bottom wells; 500V scan; washed 15 minutes in 1 M NaCl in 10 mM tris-HCl (pH 8.0)

Row | Substance | Retained fluorescence
40 | N-TAMPA-Asp-Asp- Asp-Asp-Asp-Asp- Asp-C ({TAMRA}-DDDDDDD) [Peptide 2DOS-16] | 229,090
41 | N-TAMPA-Asp-Asp- Asp-Asp-Asp-Asp- Asp-Asp-Asp-C ({TAMRA}-DDDDDDDDD) [Peptide 2DOS-12] | 106,741
42 | N-TAMRA-Asp-Phe- Ala-Phe-Ser-Phe- Lys-C ({TAMRA}-DFAFSFK) [Peptide 2DOS-6] | 5,256,539

Assay: Retention of peptides on Greiner polypropylene V-bottom wells
Assay type: physicochemical
Settings: 400V scan
Protocol: as §4, §5, §6, §7, §8, §9, §10
as §2, with “plates were” for “plate was”
as §3

Row | Substance | Percent retention
43 | N-TAMPA-Asp-Asp- Asp-Asp-Asp-Asp- Asp-C ({TAMRA}-DDDDDDD) [Peptide 2DOS-16] | 1%
44 | N-TAMPA-Asp-Asp- Asp-Asp-Asp-Asp- Asp-Asp-Asp-C ({TAMRA}-DDDDDDDDD) [Peptide 2DOS-12] | 1%
45 | N-TAMRA-Asp-Phe- Ala-Phe-Ser-Phe- Lys-C ({TAMRA}-DFAFSFK) [Peptide 2DOS-6] | 22%

Same assay, conditions: 400V scan, unwashed

Row | Substance | Untreated fluorescence
46 | N-TAMPA-Asp-Asp- Asp-Asp-Asp-Asp- Asp-C ({TAMRA}-DDDDDDD) [Peptide 2DOS-16] | 3,813,060
47 | N-TAMPA-Asp-Asp- Asp-Asp-Asp-Asp- Asp-Asp-Asp-C ({TAMRA}-DDDDDDDDD) [Peptide 2DOS-12] | 3,235,590
48 | N-TAMRA-Asp-Phe- Ala-Phe-Ser-Phe- Lys-C ({TAMRA}-DFAFSFK) [Peptide 2DOS-6] | 3,889,995

Same assay, conditions: 400V scan, washed 15 minutes in 1 M NaCl in 10 mM tris-HCl (pH 8.0)

Row | Substance | Retained fluorescence
49 | N-TAMPA-Asp-Asp- Asp-Asp-Asp-Asp- Asp-C ({TAMRA}-DDDDDDD) [Peptide 2DOS-16] | 25,885
50 | N-TAMPA-Asp-Asp- Asp-Asp-Asp-Asp- Asp-Asp-Asp-C ({TAMRA}-DDDDDDDDD) [Peptide 2DOS-12] | 20,175
51 | N-TAMRA-Asp-Phe- Ala-Phe-Ser-Phe- Lys-C ({TAMRA}-DFAFSFK) [Peptide 2DOS-6] | 849,582
